# Target: human Fc (human)
# Experiment: ELISA, negative control
row,Binder,optical density
1,"365_E03 (antibody, V domains shown) VH: EVQLLESGGGLVQPGGSLRLSCAASGFTFDSYSMNWVRQAPGKGLEWVSNINYNGGYTGYADSVKGRFTISRDNSKNTLYLQMNSLRAEDTAVYYCARSATWHDTHLDYWGQGTLVTVSS VL: DIQMTQSPSSLSASVGDRVTITCRASQSILTYVNWYQQKPGKAPKLLIYAATSLHSGVPSRFSGSGSGTDFTLTISSLQPEDFATYYCQQSDERPLTFGGGTKVEIK",0.314 OD
2,"369_E09 (antibody, V domains shown) VH: EVQLLESGGGLVQPGGSLRLSCAASGFTFDSYSMNWVRQAPGKGLEWVSNINYNSGYKGYADSVKGRFTISRDNSKNTLYLQMNSLRAEDTAVYYCARSATWHDTHLDYWGQGTLVTVSS VL: DIQMTQSPSSLSASVGDRVTITCRASQSILSYLNWYQQKPGKAPKLVIYAATSRASGVPSRFSGSGSGTDFTLTISSLQPEDFATYYCQQSYDLPLTFGGGTKVEIK",0.278 OD
3,"367_D02 (antibody, V domains shown) VH: EVQLLESGGGLVQPGGSLRLSCAASGFTFDDYSMNWVRQAPGKGLEWVSNINYNGGYTSYADSVKGRFTISRDNSKNTLYLQMNSLRAEDTAVYYCARSATWHDTHLDYWGQGTLVTVSS VL: DIQMTQSPSSLSASVGDRVTITCRASQSIVTYVNWYQQKPGKAPKLLIYAATSRASGVPSRFSGSGSGTDFTLTISSLQPEDFATYYCQQSYENPLTFGGGTKVEIK",0.321 OD
4,"370_D07 (antibody, V domains shown) VH: EVQLLESGGGLVQPGGSLRLSCAASGFTFSSYGMNWVRQAPGKGLEWVSNINYNSGYTGYADSVKGRFTISRDNSKNTLYLQMNSLRAEDTAVYYCARSATWHDTHLDYWGQGTLVTVSS VL: DIQMTQSPSSLSASVGDRVTITCRASQSILSYVNWYQQKPGKAPKLVIYAATSLASGVPSRFSGSGSGTDFTLTISSLQPEDFATYYCQQSYESPLTFGGGTKVEIK",0.309 OD
5,"367_F10 (antibody, V domains shown) VH: EVQLLESGGGLVQPGGSLRLSCAASGFTFDSYGMNWVRQAPGKGLEWVSGINYNSGYTSYADSVKGRFTISRDNSKNTLYLQMNSLRAEDTAVYYCARAATWHDTHLDYWGQGTLVTVSS VL: DIQMTQSPSSLSASVGDRVTITCRASQSILTYLNWYQQKPGKAPKLLIYAATSRASGVPSRFSGSGSGTDFTLTISSLQPEDFATYYCQQSYDTPLTFGGGTKVEIK",0.253 OD
6,"367_G03 (antibody, V domains shown) VH: EVQLLESGGGLVQPGGSLRLSCAASGFTFDSYSMHWVRQAPGKGLEWVANINYNGGYTSYADSVKGRFTISRDNSKNTLYLQMNSLRAEDTAVYYCARAATWHDTHLDYWGQGTLVTVSS VL: DIQMTQSPSSLSASVGDRVTITCRASQSIVSYVNWYQQKPGKAPKLVIYAATSRHSGVPSRFSGSGSGTDFTLTISSLQPEDFATYYCQQSYDLPLTFGGGTKVEIK",0.341 OD
7,"365_G02 (antibody, V domains shown) VH: EVQLLESGGGLVQPGGSLRLSCAASGFTFSDYSMNWVRQAPGKGLEWVSNINYNSGYKGYADSVKGRFTISRDNSKNTLYLQMNSLRAEDTAVYYCARSATWHDTHLDYWGQGTLVTVSS VL: DIQMTQSPSSLSASVGDRVTITCRASQSIVTYLNWYQQKPGKAPKLVIYAVTSLHSGVPSRFSGSGSGTDFTLTISSLQPEDFATYYCQQSYELPLTFGGGTKVEIK",0.325 OD
8,"365_D06 (antibody, V domains shown) VH: EVQLLESGGGLVQPGGSLRLSCAASGFTFDSYSMNWVRQAPGKGLEWVSNINYNGGYTSYADSVKGRFTISRDNSKNTLYLQMNSLRAEDTAVYYCARSATWHDTHLDYWGQGTLVTVSS VL: DIQMTQSPSSLSASVGDRVTITCRASQSILTYVNWYQQKPGKAPKLLIYAATSRASGVPSRFSGSGSGTDFTLTISSLQPEDFATYYCQQSYSLPLTFGGGTKVEIK",0.319 OD
9,"366_C07 (antibody, V domains shown) VH: EVQLLESGGGLVQPGGSLRLSCAASGFTFSSYSMNWVRQAPGKGLEWVSNINYNGGYTSYADSVKGRFTISRDNSKNTLYLQMNSLRAEDTAVYYCARSATWHDTHLDYWGQGTLVTVSS VL: DIQMTQSPSSLSASVGDRVTITCRASQSILTYVNWYQQKPGKAPKLLIYAATSRASGVPSRFSGSGSGTDFTLTISSLQPEDFATYYCQQSYNSPLTFGGGTKVEIK",0.301 OD
10,"369_G09 (antibody, V domains shown) VH: EVQLLESGGGLVQPGGSLRLSCAASGFTFDSYSMNWVRQAPGKGLEWVSNINYNGGYTGYADSVKGRFTISRDNSKNTLYLQMNSLRAEDTAVYYCARSATWHDTHLDYWGQGTLVTVSS VL: DIQMTQSPSSLSASVGDRVTITCRASQSIVTYLNWYQQKPGKAPKLLIYAATSRASGVPSRFSGSGSGTDFTLTISSLQPEDFATYYCQQSYDLPLTFGGGTKVEIK",0.395 OD
11,"371_B10 (antibody, V domains shown) VH: EVQLLESGGGLVQPGGSLRLSCAASGFTFDSYSMNWVRQAPGKGLEWVSNINYNGGYTGYADSVKGRFTISRDNSKNTLYLQMNSLRAEDTAVYYCARSATWHDTHLDYWGQGTLVTVSS VL: DIQMTQSPSSLSASVGDRVTITCRASQSIVSYVNWYQQKPGKAPKLLIYAATSRASGVPSRFSGSGSGTDFTLTISSLQPEDFATYYCQQSYDLPLTFGGGTKVEIK",0.387 OD
12,"365_E04 (antibody, V domains shown) VH: EVQLLESGGGLVQPGGSLRLSCAASGFTFDSYGMHWVRQAPGKGLEWVASINYNGGYKSYADSVKGRFTISRDNSKNTLYLQMNSLRAEDTAVYYCARAANWHDTALDYWGQGTLVTVSS VL: DIQMTQSPSSLSASVGDRVTITCRASQSILSYVNWYQQKPGKAPKLLIYAATSLASGVPSRFSGSGSGTDFTLTISSLQPEDFATYYCQQSYELPLTFGGGTKVEIK",0.46 OD
13,"373_A07 (antibody, V domains shown) VH: EVQLLESGGGLVQPGGSLRLSCAASGFTFSSYSMNWVRQAPGKGLEWVSNINYNGGYTGYADSVKGRFTISRDNSKNTLYLQMNSLRAEDTAVYYCARSATWHDTHLDYWGQGTLVTVSS VL: DIQMTQSPSSLSASVGDRVTITCRASQSILTYVNWYQQKPGKAPKLLIYAATSRASGVPSRFSGSGSGTDFTLTISSLQPEDFATYYCQQSDNLPLTFGGGTKVEIK",0.177 OD
14,"365_A02 (antibody, V domains shown) VH: EVQLLESGGGLVQPGGSLRLSCAASGFTFDSYSMNWVRQAPGKGLEWVSNINYNGGYTSYADSVKGRFTISRDNSKNTLYLQMNSLRAEDTAVYYCARSATWHDTHLDYWGQGTLVTVSS VL: DIQMTQSPSSLSASVGDRVTITCRASQSILTYVNWYQQKPGKAPKLLIYAATSRASGVPSRFSGSGSGTDFTLTISSLQPEDFATYYCQQSYNSPLTFGGGTKVEIK",0.374 OD

# Now from value to binder:
row,optical density,Binder
1,0.178 OD,"374_A03 (antibody, V domains shown) VH: EVQLLESGGGLVQPGGSLRLSCAASGFTFDSYSMNWVRQAPGKGLEWVSNINYNGGYTSYADSVKGRFTISRDNSKNTLYLQMNSLRAEDTAVYYCARSATWHDTHLDYWGQGTLVTVSS VL: DIQMTQSPSSLSASVGDRVTITCRASQSILTYLNWYQQKPGKAPKLLIYAATSRASGVPSRFSGSGSGTDFTLTISSLQPEDFATYYCQQSYDNPLTFGGGTKVEIK"
2,0.214 OD,"374_G12 (antibody, V domains shown) VH: EVQLLESGGGLVQPGGSLRLSCAASGFTFDDYGMNWVRQAPGKGLEWVSSINYNGGYKSYADSVKGRFTISRDNSKNTLYLQMNSLRAEDTAVYYCARSATWHDTHLDYWGQGTLVTVSS VL: DIQMTQSPSSLSASVGDRVTITCRASQSILTYVNWYQQKPGKAPKLVIYAATSLASGVPSRFSGSGSGTDFTLTISSLQPEDFATYYCQQSYNSPLTFGGGTKVEIK"
3,0.176 OD,"374_E03 (antibody, V domains shown) VH: EVQLLESGGGLVQPGGSLRLSCAASGFTFSSYSMNWVRQAPGKGLEWVSNINYNSGYKGYADSVKGRFTISRDNSKNTLYLQMNSLRAEDTAVYYCARSATWHDTHLDYWGQGTLVTVSS VL: DIQMTQSPSSLSASVGDRVTITCRASQSILTYVNWYQQKPGKAPKLVIYAATSLASGVPSRFSGSGSGTDFTLTISSLQPEDFATYYCQQSYDTPLTFGGGTKVEIK"
4,0.16 OD,"374_A08 (antibody, V domains shown) VH: EVQLLESGGGLVQPGGSLRLSCAASGFTFDSYSMNWVRQAPGKGLEWVSNINYNSGYTSYADSVKGRFTISRDNSKNTLYLQMNSLRAEDTAVYYCARSATWHDTHLDYWGQGTLVTVSS VL: DIQMTQSPSSLSASVGDRVTITCRASQSIVTYLNWYQQKPGKAPKLLIYAATSLASGVPSRFSGSGSGTDFTLTISSLQPEDFATYYCQQSYDLPLTFGGGTKVEIK"
5,0.161 OD,"374_G01 (antibody, V domains shown) VH: EVQLLESGGGLVQPGGSLRLSCAASGFTFDSYSMNWVRQAPGKGLEWVSNINYNSGYTSYADSVKGRFTISRDNSKNTLYLQMNSLRAEDTAVYYCARSATWHDTHLDYWGQGTLVTVSS VL: DIQMTQSPSSLSASVGDRVTITCRASQSILTYVNWYQQKPGKAPKLLIYATTSRHSGVPSRFSGSGSGTDFTLTISSLQPEDFATYYCQQSYNLPLTFGGGTKVEIK"
6,0.162 OD,"374_D11 (antibody, V domains shown) VH: EVQLLESGGGLVQPGGSLRLSCAASGFTFDSYGMNWVRQAPGKGLEWVSNINYNSGYTGYADSVKGRFTISRDNSKNTLYLQMNSLRAEDTAVYYCARSATWHDTHLDYWGQGTLVTVSS VL: DIQMTQSPSSLSASVGDRVTITCRASQSILTYLNWYQQKPGKAPKLLIYAATSRASGVPSRFSGSGSGTDFTLTISSLQPEDFATYYCQQSYETPLTFGGGTKVEIK"
7,0.18 OD,"373_D02 (antibody, V domains shown) VH: EVQLLESGGGLVQPGGSLRLSCAASGFTFSSYSMNWVRQAPGKGLEWVSNINYNSGYKGYADSVKGRFTISRDNSKNTLYLQMNSLRAEDTAVYYCARSATWHDTHLDYWGQGTLVTVSS VL: DIQMTQSPSSLSASVGDRVTITCRASQSILSYLNWYQQKPGKAPKLLIYAATSLASGVPSRFSGSGSGTDFTLTISSLQPEDFATYYCQQSYDLPLTFGGGTKVEIK"
8,0.225 OD,"374_C07 (antibody, V domains shown) VH: EVQLLESGGGLVQPGGSLRLSCAASGFTFDSYSMNWVRQAPGKGLEWVSNINYNGGYTSYADSVKGRFTISRDNSKNTLYLQMNSLRAEDTAVYYCARSATWHDTHLDYWGQGTLVTVSS VL: DIQMTQSPSSLSASVGDRVTITCRASQSIISYLNWYQQKPGKAPKLLIYAATSRASGVPSRFSGSGSGTDFTLTISSLQPEDFATYYCQQSDELPLTFGGGTKVEIK"
